One substance from patent US20090214553A1 can be followed below.

In the assay the target is human CTLA-4-murine Ig fusion protein (human) (UniProt P16410). Description: sandwich ELISA on the CTLA4-muIg standard with the blocking pair BNI3 (coated) and biotinylated AS-33 (detecting).

Consider “BNI3, CTLA-4 blocking mouse IgG2a mAb (antibody)”, for which the limit of sensitivity was determined as 6.25 ng/mL.
